Data taken from patent publication US20240199762A1 (PHILOGEN S P A, published 2024).

Legend:
[1] = target: T1, human FAP-ECD (extracellular domain) recombinant fragment containing a C-terminal His6 tag (human, UniProt Q12884 26-760, randomly biotinylated with NHS ester-activated biotin (as used on the SA chip and Streptawell plates)); experiment: epitope ELISA on biotinylated human FAP on Streptawell plates
T1 construct: also called biotinylated human FAP-ECD; biotinylated human FAP
T1 sequence: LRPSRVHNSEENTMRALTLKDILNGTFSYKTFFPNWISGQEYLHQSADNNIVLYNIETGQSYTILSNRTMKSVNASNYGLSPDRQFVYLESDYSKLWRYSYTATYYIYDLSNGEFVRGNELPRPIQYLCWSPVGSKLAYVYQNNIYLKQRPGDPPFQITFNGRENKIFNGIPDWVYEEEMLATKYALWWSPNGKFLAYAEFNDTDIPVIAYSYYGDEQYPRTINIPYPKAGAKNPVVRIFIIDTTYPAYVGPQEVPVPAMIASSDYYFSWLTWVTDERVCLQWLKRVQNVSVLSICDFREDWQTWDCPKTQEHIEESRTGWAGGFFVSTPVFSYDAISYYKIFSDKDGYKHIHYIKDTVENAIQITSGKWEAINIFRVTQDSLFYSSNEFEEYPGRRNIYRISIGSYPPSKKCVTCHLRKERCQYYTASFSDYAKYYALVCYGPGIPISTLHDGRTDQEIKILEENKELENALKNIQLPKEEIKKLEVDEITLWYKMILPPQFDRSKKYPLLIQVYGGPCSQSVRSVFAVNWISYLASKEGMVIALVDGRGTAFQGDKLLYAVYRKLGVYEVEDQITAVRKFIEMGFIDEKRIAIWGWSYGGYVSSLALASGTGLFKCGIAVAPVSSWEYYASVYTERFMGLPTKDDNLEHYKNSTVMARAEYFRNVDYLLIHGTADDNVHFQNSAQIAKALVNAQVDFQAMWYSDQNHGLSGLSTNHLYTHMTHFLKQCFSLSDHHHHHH
Description: To evaluate binding, 100 nM of biotinylated human FAP were coated on Streptawell plates for 30 min at 37° C.
The C5 antibody in IgG2a format was incubated together with the 7NP2 antibody in IgG1 format, the F5 antibody in IgG1 format (WO2016/116399), the ESC11 antibody in IgG1 format (Fisher et al., (2012) Clin Cancer Res; 18(22)), or the (negative control) antibody KSF in IgG1 format for 1.5 h at room temperature at a concentration of 5 μg/mL in the antigen-coated wells. After 3 washes with PBS, binding of the antibodies to human FAP was detected using anti-human or anti-murine HRP conjugates (FIG. 7).

[2] = target: T2, human FAP expressed on transduced cells (SKRC52-hFAP, HT-1080-hFAP) (human, UniProt Q12884 1-760); experiment: immunofluorescence on SKRC52-hFAP tumor cryosections, FITC conjugate
T2 construct: whole, on cells; Also the target in SKRC52-hFAP tumor cryosections and in tumors of tumor-bearing mice; also called cell-expressed human FAP
T2 sequence (looked up): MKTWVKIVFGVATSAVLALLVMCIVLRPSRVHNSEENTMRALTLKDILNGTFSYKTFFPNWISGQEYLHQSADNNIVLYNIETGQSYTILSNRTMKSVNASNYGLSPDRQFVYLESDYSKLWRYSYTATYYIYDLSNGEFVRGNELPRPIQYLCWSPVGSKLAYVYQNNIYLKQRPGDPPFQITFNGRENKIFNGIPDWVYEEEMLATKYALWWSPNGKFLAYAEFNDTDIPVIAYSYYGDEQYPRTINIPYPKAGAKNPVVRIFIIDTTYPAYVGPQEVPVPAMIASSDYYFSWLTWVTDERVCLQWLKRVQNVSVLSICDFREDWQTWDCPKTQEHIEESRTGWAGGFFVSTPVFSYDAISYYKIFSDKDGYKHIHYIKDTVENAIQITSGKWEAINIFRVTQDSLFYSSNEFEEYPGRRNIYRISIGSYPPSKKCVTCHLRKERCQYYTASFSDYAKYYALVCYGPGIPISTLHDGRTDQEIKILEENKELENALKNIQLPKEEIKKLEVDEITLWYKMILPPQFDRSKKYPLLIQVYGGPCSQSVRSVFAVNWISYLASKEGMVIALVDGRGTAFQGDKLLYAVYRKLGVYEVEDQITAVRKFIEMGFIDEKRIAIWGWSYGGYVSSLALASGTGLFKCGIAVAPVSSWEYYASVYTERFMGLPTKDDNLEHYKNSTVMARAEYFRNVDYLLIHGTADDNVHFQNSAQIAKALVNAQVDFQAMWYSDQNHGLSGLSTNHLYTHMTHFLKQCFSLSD
Description: Immunofluorescence experiments were performed with 7NP2 and KSF (negative control), both in IgG1 format on cryosections of renal cell carcinoma SKRC52-hFAP tumor tissue slides, which were transduced to express human FAP. The 7NP2 and KSF IgG1 molecules were conjugated to FITC to allow detection. Cryostat sections (10 μm) were stained using the 7NP2 and KSF IgG1 conjugates at a final concentration of 10 μg/mL and detected with rabbit anti-FITC and goat anti-rabbit AlexaFluor488 antibody. Slides were mounted with fluorescent mounting medium and analyzed with a microscope (FIG. 5).

B1: anti-hen egg lysozyme antibody KSF in IgG1 format (antibody, V domains shown)
VH: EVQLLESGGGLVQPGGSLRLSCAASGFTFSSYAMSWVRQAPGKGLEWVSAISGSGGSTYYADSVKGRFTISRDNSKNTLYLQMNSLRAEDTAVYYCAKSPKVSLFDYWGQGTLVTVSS
VL: SSELTQDPAVSVALGQTVRITCQGDSLRSYYASWYQQKPGQAPVLVIYGKNNRPSGIPDRFSGSSSGNTASLTITGAQAEDEADYYCQSSPLNRLAVVFGGGTKLTVLG
notes: Negative control; It was conjugated to FITC in the immunofluorescence and ex vivo experiments; also called KSF IgG1; KSF(IgG1)
B1: no binding (tested: 5 µg/mL) [1]; no binding (tested: 10 µg/mL) [2].
